Read-outs that look alike come from different tables or passages of the source.
Tests used:
ISG20 [1] = target: T1, ISG20 (UniProt Q96AZ6 1-181); assay: EMSA
ISG20 [2] = target: T1, ISG20; assay: EMSA; remark: listed apart in the source

T1 sequence (Q96AZ6 whole entry): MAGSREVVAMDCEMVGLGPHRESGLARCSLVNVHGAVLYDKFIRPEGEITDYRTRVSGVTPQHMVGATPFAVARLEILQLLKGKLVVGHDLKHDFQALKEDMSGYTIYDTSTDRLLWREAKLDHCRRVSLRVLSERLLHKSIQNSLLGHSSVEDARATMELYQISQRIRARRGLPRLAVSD

| Binder | binding result (ISG20 [1]) | binding result (ISG20 [2]) |
| --- | --- | --- |
| GGTUGTUUGUAGGATTUAGUGUUG (ssDNA, all deoxycytidines replaced by deoxyuridine; U = dU) [035: dU-containing (-) ssDNA] | binds | – |
| CGGCGCTGAATCCTGCGGACGACC (ssDNA) [036: (+) ssDNA] | – | binds |
| GGTCGTCCGCAGGATTCAGCGCCG (ssDNA) [033: (-) ssDNA] | – | binds |

Source: publication PMC8183418
